Laboratory results from patent US20220127350A1 (NUMAB THERAPEUTICS, published 2022).
Blank lines part the entries; values can stand above or below the binder they belong to.

Experiments:
[1] = biological target: T1, human TNFα (human, UniProt P01375 77-233); assay: SPR (summary table), affinity to human TNF
T1 construct: Biotinylated in the Biacore assay
Description: (§1) In this experiment, the biotinylated antigens were captured using the Biotin-CAPture kit from Biacore. After each analyte injection cycle the CAP sensor chip was regenerated and new antigen was captured. Trispecific molecules were injected as analyte using a dose response multicycle kinetic assay with concentrations of the analyte ranging from 0.35 to 90 nM diluted in running buffer. Obtained sensorgrams were fitted using the 1:1 binding model.

[2] = biological target: T2, cynomolgus serum albumin (cynomolgus monkey, UniProt A2V9Z4 25-608); assay: SPR (MASS-1), CSA immobilised, trispecific as analyte, pH 5.5
T2 construct: also called CSA
Description: (§2) The binding to human serum albumin (HSA) and cynomolgus serum albumin (CSA) was assessed for purified trispecific molecules by running SPR spectroscopy on a MASS-1 device (Sierra Sensors). HSA was directly immobilized on a high capacity amine sensor chip (Sierra Sensors) and trispecific molecules were injected as analyte using a dose response multicycle kinetic assay with concentrations of the analyte ranging from 0.35 to 90 nM diluted either in running buffer at pH5.5 or pH7.5. Obtained sensorgrams were fitted using the 1:1 binding model. Affinity to CSA was assessed in a similar approach using a CSA immobilized sensor chip.

[3] = biological target: T3, human serum albumin (human, UniProt P02768 25-609); assay: SPR (MASS-1), HSA immobilised, trispecific as analyte, pH 5.5
T3 construct: also called HSA
Description: as §2

[4] = biological target: T4, human IL-17A (human, UniProt Q16552 24-155); assay: SPR (summary table), affinity to human IL-17, capture setup
T4 construct: Recombinant human IL-17A (Peprotech Cat. No. 200-17), disulfide-linked homodimer from E. coli; Biotinylated or RPE-labelled in some assays; also called hIL-17A; IL-17A-RPE (labelled)
Description: as §1

[5] = biological target: T3, human serum albumin; assay: SPR (MASS-1), trispecific immobilised, HSA injected as last analyte
Description: (§3) All possible sequences of antigen injection were tested resulting in six possible sequences.
(§4) To evaluate concomitant binding of each antigen to trispecific molecules, the binding level relative to the theoretical Rmax was calculated for each injection using the respective ligand and analyte molecular masses and the immobilization level of the trispecific molecules. The average of the maximum binding relative to theoretical Rmax for each antigen was obtained by averaging individual maximum binding relative to theoretical Rmax obtained for the two injections where the respective antigen was injected as first analyte (in the absence of other bound antigens). Next, the binding relative to the theoretical Rmax of each analyte injection was compared to its average maximum binding to calculate the fraction binding obtained in the presence of other bound antigens. […] The binding levels relative to the theoretical Rmax and the average of maximum binding (binding levels in the absence of other antigens) of each antigen were calculated.

[6] = biological target: T2, cynomolgus serum albumin; assay: SPR (MASS-1), CSA immobilised, trispecific as analyte, pH 7.4
Description: as §2

[7] = biological target: T1, human TNFα; assay: cell-based or functional assay
[8] = biological target: T4, human IL-17A; assay: cell-based or functional assay
[9] = biological target: T4, human IL-17A; assay: competitive ELISA: biotinylated human IL-17A preincubated with the trispecific molecule, then binding to coated IL-17RA detected (blocked ligand: IL-17RA) [right panel]
[10] = biological target: T1, human TNFα; assay: SPR (MASS-1), trispecific immobilised, antigens injected sequentially
Description: as §3, §4

[11] = biological target: T4, human IL-17A; assay: as above
Description: as §3, §4

[12] = biological target: T3, human serum albumin; assay: as above
Description: as §3, §4

[13] = biological target: T3, human serum albumin; assay: SPR (MASS-1), HSA immobilised, trispecific as analyte, pH 7.4
Description: as §2

[14] = biological target: T4, human IL-17A; assay: competitive ELISA, blocking of IL-17A/IL-17RA interaction (summary table)
Description: (§5) Finally, Tetramethylbenzidine solution was added to develop the plate for 5 to 10 minutes and the reaction was stopped with 1 M HCl. The plate was read at 450 nm and 570 nm (reference wavelength).

[15] = biological target: T1, human TNFα; assay: SPR (Biacore T200), biotinylated antigen captured (Biotin-CAPture), trispecific as analyte;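 note: multicycle dose-response kinetics, analyte at 0.35–90 nM in running buffer, CAP chip regenerated with fresh antigen each cycle, sensorgrams fitted to a 1:1 binding model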
Description: as §1

[16] = biological target: T5, cynomolgus monkey IL-17A (Macaca fascicularis (cynomolgus monkey)); assay: as above
T5 construct: also called cyno IL-17A; cyno IL17A
Description: as §1

[17] = biological target: T4, human IL-17A; assay: as above
Description: as §1

[18] = biological target: T3, human serum albumin; assay: SPR (summary table), affinity to HSA at pH 5.5
Description: as §2

[19] = biological target: T1, human TNFα; assay: cell-based or functional assay; remark: listed apart in the source
[20] = biological target: T4, human IL-17A; assay: competitive ELISA: IL-17RA coated, biotinylated IL-17A preincubated with trispecific molecule
Description: as §5

[21] = biological target: T4, human IL-17A; assay: competitive ELISA: biotinylated human IL-17A preincubated with the trispecific molecule, then binding to coated IL-17RA detected (blocked ligand: IL-17RA) [left panel]
[22] = biological target: T4, human IL-17A; assay: cell-based or functional assay; remark: listed apart in the source

Kd [1]: 0.122 nM
Kd [2]: 0.463 nM
koff [2]: 0.000147 s⁻¹
kon [2]: 318000 M⁻¹ s⁻¹
Kd [3]: 1.32 nM
koff [3]: 0.000373 s⁻¹
kon [3]: 284000 M⁻¹ s⁻¹
Kd [4]: 0.341 nM
relative binding level compared to average maximum binding [5]: ~70%
Kd [6]: 1.31 nM
koff [6]: 0.000215 s⁻¹
kon [6]: 164000 M⁻¹ s⁻¹
rel. IC50 to A13 (nM) in HT-29 assay, +HSA [7]: 1
rel. IC50 to A13 (nM) in HT-29 assay, -HSA [7]: 4.8
rel. IC50 to secukinumab (ng/ml) in HT-29 assay, +HSA [8]: 64.5
rel. IC50 to secukinumab (ng/ml) in HT-29 assay, -HSA [8]: 52
IC50 (read off the curve) [9]: ~5 ng/mL
antigen binding relative to average maximum binding [10]: ≥ 70%
antigen binding relative to average maximum binding [11]: ≥ 70%
antigen binding relative to average maximum binding [12]: ≥ 70%
Kd [13]: 1.91 nM
koff [13]: 0.000369 s⁻¹
kon [13]: 193000 M⁻¹ s⁻¹
rel. IC50 (IC50, secukinumab/IC50, test sample, ng/ml) [14]: 10.6
Kd [15]: 0.122 nM
koff [15]: 3.59e-05 s⁻¹
kon [15]: 296000 M⁻¹ s⁻¹
Kd [16]: 0.223 nM
koff [16]: 5.89e-05 s⁻¹
kon [16]: 264000 M⁻¹ s⁻¹
Kd [17]: 0.341 nM
koff [17]: 7.83e-05 s⁻¹
kon [17]: 229000 M⁻¹ s⁻¹
Kd [18]: 1.32 nM
rel. IC50 in L929 assay (IC50, A13/IC50, test sample, nM) [19]: 1
rel. IC50 to secukinumab (IC50, secukinumab/IC50, test sample, ng/ml) [20]: 10.6
B1: A7 (trispecific scDb-scFv) (other)
chain: DIQMTQSPSSLSASVGDRVTINCQASESISSWLAWYQQKPGKRPKLLIYKASTLASGVPSRFSGSGSGTDYTLTISSLQPEDFATYYCQGYYLDSSVDDNVFGGGTKLTVLGGGGGSEVQLVESGGGLVQPGGSLRLSCAASGFSFSSDYWMCWVRQAPGKGLEWIGCIYAGDVDDTDYASWARGRFTISRDNSKNTVYLQMNSLRAEDTAVYYCARVDGFDITYFDLWGQGTLVTVSSGGGGSGGGGSGGGGSGGGGSDIQMTQSPSSLSASVGDRVTITCQASQTINYWLAWYQQKPGKAPKLLIYRASTLASGVPSRFSGSGSGTDFTLTISSLQPEDFATYYCQNYYYSTSRSYGFGGGTKLTVLGGGGGSEVQLVESGGGLVQPGGSLRLSCAASGIDFSTYGISWVRQAPGKGLEWIAYIYPDYGITDYASWVNGRFTISLDNAQNTVYLQMNSLRAEDTAVYYCARSGSYYSRGWGAHYFNLWGQGTLVTVSSGGGGSGGGGSDIQMTQSPSSLSASVGDRVTITCQSSESVYSNNQLSWYQQKPGQPPKLLIYDASDLASGVPSRFSGSGSGTDFTLTISSLQPEDFATYYCAGGFSSSSDTAFGGGTKLTVLGGGGGSGGGGSGGGGSGGGGSEVQLVESGGGLVQPGGSLRLSCAASGFSLSSNAMGWVRQAPGKGLEYIGIISVGGFTYYASWAKGRFTISRDNSKNTVYLQMNSLRAEDTATYFCARDRHGGDSSGAFYLWGQGTLVTVSS
notes: Single chain; also called scDb-scFv A7
IC50 in L929 assay, cell viability [19]: 0.01 nM

Kd [1]: 0.0237 nM
Kd [3]: 0.77 nM
koff [3]: 0.000365 s⁻¹
kon [3]: 475000 M⁻¹ s⁻¹
Kd [4]: 0.414 nM
relative binding level compared to average maximum binding [5]: ~70%
rel. IC50 to A13 (nM) in HT-29 assay, +HSA [7]: 1
rel. IC50 to A13 (nM) in HT-29 assay, -HSA [7]: 0.6
rel. IC50 to secukinumab (ng/ml) in HT-29 assay, +HSA [8]: 26.8
rel. IC50 to secukinumab (ng/ml) in HT-29 assay, -HSA [8]: 30
IC50 (read off the curve) [9]: ~5 ng/mL
antigen binding relative to average maximum binding [10]: ≥ 70%
antigen binding relative to average maximum binding [11]: ≥ 70%
antigen binding relative to average maximum binding [12]: ≥ 70%
Kd [13]: 1.25 nM
koff [13]: 0.000332 s⁻¹
kon [13]: 266000 M⁻¹ s⁻¹
rel. IC50 (IC50, secukinumab/IC50, test sample, ng/ml) [14]: 10
Kd [15]: 0.0237 nM
koff [15]: 2.66e-06 s⁻¹
kon [15]: 112000 M⁻¹ s⁻¹
Kd [17]: 0.414 nM
koff [17]: 8.96e-05 s⁻¹
kon [17]: 216000 M⁻¹ s⁻¹
Kd [18]: 0.77 nM
rel. IC50 in L929 assay (IC50, A13/IC50, test sample, nM) [19]: 0.2
rel. IC50 to secukinumab (IC50, secukinumab/IC50, test sample, ng/ml) [20]: 10
B2: A6 (trispecific scDb-scFv) (other)
chain: DIQMTQSPSSLSASVGDRVTITCQASQTINYWLAWYQQKPGKAPKLLIYRASTLASGVPSRFSGSGSGTDFTLTISSLQPEDFATYYCQNYYYSTSRSYGFGGGTKLTVLGGGGGSEVQLVESGGGLVQPGGSLRLSCAASGFSLSSNAMGWVRQAPGKGLEYIGIISVGGFTYYASWAKGRFTISRDNSKNTVYLQMNSLRAEDTATYFCARDRHGGDSSGAFYLWGQGTLVTVSSGGGGSGGGGSGGGGSGGGGSDIQMTQSPSSLSASVGDRVTITCQSSESVYSNNQLSWYQQKPGQPPKLLIYDASDLASGVPSRFSGSGSGTDFTLTISSLQPEDFATYYCAGGFSSSSDTAFGGGTKLTVLGGGGGSEVQLVESGGGLVQPGGSLRLSCAASGFSFSSDYWMCWVRQAPGKGLEWIGCIYAGDVDDTDYASWARGRFTISRDNSKNTVYLQMNSLRAEDTAVYYCARVDGFDITYFDLWGQGTLVTVSSGGGGSGGGGSDIQMTQSPSSLSASVGDRVTINCQASESISSWLAWYQQKPGKRPKLLIYKASTLASGVPSRFSGSGSGTDYTLTISSLQPEDFATYYCQGYYLDSSVDDNVFGGGTKLTVLGGGGGSGGGGSGGGGSGGGGSEVQLVESGGGLVQPGGSLRLSCAASGIDFSTYGISWVRQAPGKGLEWIAYIYPDYGITDYASWVNGRFTISLDNAQNTVYLQMNSLRAEDTAVYYCARSGSYYSRGWGAHYFNLWGQGTLVTVSS
notes: Single chain
IC50 in L929 assay, cell viability [19]: 0.06 nM

Kd [1]: 0.1 nM
Kd [2]: 0.795 nM
Kd [3]: 1.66 nM
Kd [4]: 0.575 nM
Kd [6]: 2.47 nM
rel. IC50 to A13 (nM) in HT-29 assay, -HSA [7]: 2.4
rel. IC50 to secukinumab (ng/ml) in HT-29 assay, +HSA [8]: 63
rel. IC50 to secukinumab (ng/ml) in HT-29 assay, -HSA [8]: 88.9
IC50 (read off the curve) [21]: ~4 ng/mL
Kd [13]: 2.69 nM
rel. IC50 (IC50, secukinumab/IC50, test sample, ng/ml) [14]: 4.9
Kd [15]: 0.1 nM
Kd [16]: 0.523 nM
Kd [17]: 0.575 nM
Kd [18]: 1.66 nM
potency to neutralize IL-17A compared to A7 [22]: ~2 fold
rel. IC50 in L929 assay (IC50, A13/IC50, test sample, nM) [19]: 0.9
rel. IC50 to secukinumab (IC50, secukinumab/IC50, test sample, ng/ml) [20]: 4.9
B3: A5 (trispecific tribody, Fab-(scFv)2) (other)
light: DIQMTQSPSSLSASVGDRVTINCQASESISSWLAWYQQKPGKRPKLLIYKASTLASGVPSRFSGSGSGTDYTLTISSLQPEDFATYYCQGYYLDSSVDDNVFGGGTKLTVLGRTRTVAAPSVFIFPPSDEQLKSGTASVVCLLNNFYPREAKVQWKVDNALQSGNSQESVTEQDSKDSTYSLSSTLTLSKADYEKHKVYACEVTHQGLSSPVTKSFNRGECGGGGSGGGGSDIQMTQSPSSLSASVGDRVTITCQSSESVYSNNQLSWYQQKPGQPPKLLIYDASDLASGVPSRFSGSGSGTDFTLTISSLQPEDFATYYCAGGFSSSSDTAFGGGTKLTVLGGGGGSGGGGSGGGGSGGGGSEVQLVESGGGLVQPGGSLRLSCAASGFSLSSNAMGWVRQAPGKGLEYIGIISVGGFTYYASWAKGRFTISRDNSKNTVYLQMNSLRAEDTATYFCARDRHGGDSSGAFYLWGQGTLVTVSS
heavy: EVQLVESGGGLVQPGGSLRLSCAASGIDFSTYGISWVRQAPGKGLEWIAYIYPDYGITDYASWVNGRFTISLDNAQNTVYLQMNSLRAEDTAVYYCARSGSYYSRGWGAHYFNLWGQGTLVTVSSASTKGPSVFPLAPSSKSTSGGTAALGCLVKDYFPEPVTVSWNSGALTSGVHTFPAVLQSSGLYSLSSVVTVPSSSLGTQTYICNVNHKPSNTKVDKKVEPKSCGGGGSGGGGSDIQMTQSPSSLSASVGDRVTITCQASQTINYWLAWYQQKPGKAPKLLIYRASTLASGVPSRFSGSGSGTDFTLTISSLQPEDFATYYCQNYYYSTSRSYGFGGGTKLTVLGGGGGSGGGGSGGGGSGGGGSEVQLVESGGGLVQPGGSLRLSCAASGFSFSSDYWMCWVRQAPGKGLEWIGCIYAGDVDDTDYASWARGRFTISRDNSKNTVYLQMNSLRAEDTAVYYCARVDGFDITYFDLWGQGTLVTVSS
notes: Trispecific tribody
IC50 in L929 assay, cell viability [19]: 0.02 nM
